Consider 3 molecules from patent US20190218304A1 (INNATE PHARMA, published 2019).

For assay [1], the target named is T1, CD39 mutant 19 (human, UniProt P49961 1-510).
T1 construct: Expressed on transfected Hek-293T cells; also called M19
T1 chain: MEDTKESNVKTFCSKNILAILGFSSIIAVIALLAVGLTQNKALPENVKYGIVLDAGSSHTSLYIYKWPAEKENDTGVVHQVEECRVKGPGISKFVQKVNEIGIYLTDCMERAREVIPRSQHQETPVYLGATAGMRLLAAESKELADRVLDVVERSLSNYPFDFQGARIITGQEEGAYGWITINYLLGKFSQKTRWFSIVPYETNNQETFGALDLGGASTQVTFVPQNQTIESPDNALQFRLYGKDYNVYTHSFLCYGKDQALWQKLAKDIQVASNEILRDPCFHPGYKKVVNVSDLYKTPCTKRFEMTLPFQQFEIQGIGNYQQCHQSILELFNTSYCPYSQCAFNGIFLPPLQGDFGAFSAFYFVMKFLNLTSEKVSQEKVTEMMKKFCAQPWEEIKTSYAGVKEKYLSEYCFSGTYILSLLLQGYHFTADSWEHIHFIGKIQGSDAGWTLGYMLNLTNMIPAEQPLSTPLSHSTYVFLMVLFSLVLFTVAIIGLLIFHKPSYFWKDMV
The assay can be described thus: flow cytometry on transfected Hek-293T cells. As for the experimental part: (§1) Mutants were transfected in Hek-293T cells, as shown in the table 1, using numbering of SEQ ID NO: 1. Dose-ranges of test antibodies (10-2.5-0.625-0.1563-0.0391-0.0098-0.0024-0.0006 μg/ml) are tested on the 20 generated mutants by flow cytometry.
In general terms: A flow cytometer gives signals particle by particle.

Assay [2] has as its target T2, CD39 mutant 11 (human, UniProt P49961 1-510).
T2 construct: Expressed on transfected Hek-293T cells
T2 sequence: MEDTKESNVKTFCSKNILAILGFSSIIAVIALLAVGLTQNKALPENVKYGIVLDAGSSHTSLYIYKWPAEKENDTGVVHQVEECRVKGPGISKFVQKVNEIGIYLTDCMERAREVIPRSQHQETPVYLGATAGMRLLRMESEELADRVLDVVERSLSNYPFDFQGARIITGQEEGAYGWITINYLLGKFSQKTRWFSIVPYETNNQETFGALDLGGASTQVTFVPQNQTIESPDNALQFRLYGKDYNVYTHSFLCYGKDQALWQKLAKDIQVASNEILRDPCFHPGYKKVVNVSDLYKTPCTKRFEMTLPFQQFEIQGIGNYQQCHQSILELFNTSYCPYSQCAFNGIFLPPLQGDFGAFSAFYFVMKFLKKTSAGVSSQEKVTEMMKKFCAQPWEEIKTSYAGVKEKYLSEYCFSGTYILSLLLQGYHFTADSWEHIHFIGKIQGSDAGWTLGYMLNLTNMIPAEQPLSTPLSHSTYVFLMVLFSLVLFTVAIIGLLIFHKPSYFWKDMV
Kind of assay: flow cytometry on transfected Hek-293T cells. As for the experimental part: as §1

The target of assay [3] is T3, CD39 mutant 15 (human, UniProt P49961 1-510).
T3 construct: Expressed on transfected Hek-293T cells; also called M15
T3 chain: T1 chain with K87A, E100A, D107A, A138R, A139M, K142E
The assay can be described thus: flow cytometry on transfected Hek-293T cells. As for the experimental part:
as §1

For assay [4], the target named is T4, CD39 mutant 5 (human, UniProt P49961 1-510).
T4 construct: Expressed on transfected Hek-293T cells; also called M5
T4 chain: T1 chain with Q96A, N99A, A138R, A139M, K142E, E143A, R147E
The assay can be described thus: flow cytometry on transfected Hek-293T cells. As for the experimental part: as §1

In assay [5] the target is T1, CD39 mutant 19. Kind of assay: flow cytometry on Hek-293T cells transfected with CD39 mutant 19 [panel M19].
In assay [6] the target is T5, human CD39 expressed on cells (human, UniProt P49961 1-510).
T5 construct: On CHO transfectants, HEK-293T transfectants (wild type), Ramos lymphoma cells or monocyte-derived dendritic cells, as named under assay; also called huCD39; CHO-huCD39
T5 sequence: T1 chain with A138R, A139M, K142E
Kind of assay: flow cytometry on Hek-293T cells transfected with wild-type CD39 (unstained cells, US: 10,3) [panel WT].

For assay [7], the target named is T3, CD39 mutant 15. The assay can be described thus: flow cytometry on Hek-293T cells transfected with CD39 mutant 15 [panel M15].
In assay [8] the target is T4, CD39 mutant 5. Kind of assay: flow cytometry on Hek-293T cells transfected with CD39 mutant 5 [panel M5].

Where a chain is given by its changes, count along the chain named.

B1: antibody I-399 (antibody, V domains shown)
VH: PVQLQQPGAEVVMPGASVKLSCKASGYTFTSFWMNWMRQRPGQGLEWIGEIDPSDFYTNSNQRFKGKATLTVDKSSSTAYMQLSSLTSEDSAVYFCARGDFGWYFDVWGTGTSVTVSS
VL: EIVLTQSPTTMTSSPGEKITFTCSASSSINSNYLHWYQQKPGFSPKLLIYRTSNLASGVPTRFSGSGSGTSYSLTIGTMEAEDVATYYCQQGSSLPRTFGGGTKLEIK
notes: Purified from hybridoma supernatant with protein A for screening
For the molecule B1, the binding result in assay [1] is listed as “binds”; in assay [2], “no binding (tested: 10 µg/ml (top of dose range))”; in assay [3], “binds”; in assay [4], “binds”.

B2: antibody I-396 (antibody, V domains shown)
VH: EVQLQQSGAELVKPGASVKLSCIVSGFNIKDTYINWVKQRPEQGLEWIGRIDPANGNTKYDPKFQGKATMTSDTSSNTAYLHLSSLTSDDSAVYYCARWGYDDEEADYFDSWGQGTTLTVSS
VL: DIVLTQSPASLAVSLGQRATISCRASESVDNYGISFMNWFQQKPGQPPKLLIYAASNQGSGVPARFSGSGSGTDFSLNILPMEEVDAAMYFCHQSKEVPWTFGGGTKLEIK
notes: as for B1
Regarding B2, the binding result in assay [5] was “binds”; in assay [7], “no binding”; in assay [8], “binds”. Also, the “Median : Comp-Alexa Fluor 647-A” value in assay [6] was 4340.

B3: antibody I-395 (antibody, V domains shown)
VH: EVQLQQSGPELVKPGASVRMSCKASGYTFTDYNMHWVKKNHGKGLEWIGYINPNNGGTTYNQKFKGKATLTVNTSSKTAYMELRSLTSEDSAVYYCTRGGTRFASWGQGTLVTVSA
VL: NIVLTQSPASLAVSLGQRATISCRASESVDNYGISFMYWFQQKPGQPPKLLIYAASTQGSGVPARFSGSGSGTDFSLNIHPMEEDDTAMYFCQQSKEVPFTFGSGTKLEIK
notes: as for B1
B3: the binding result in assay [5] and in assay [8] was “no binding” throughout. For the same molecule, in assay [6], the “Median : Comp-Alexa Fluor 647-A” value turned out to be 4240.
